Among the data in article PMC9887155 (2023) are koff and Kd values, retold here.

In assay [1] the target is T1, Gtα/Giα with a C-terminus truncated by six amino acids (European robin (Erithacus rubecula)). The assay can be described thus: SPR; two-state reaction model, kd1. (In general: Surface plasmon resonance follows binding to a sensor surface in real time, without labels.)
The target of assay [2] is T1, Gtα/Giα with a C-terminus truncated by …. The assay can be described thus: SPR; two-state reaction model, first step (kd1/ka1).

Ends that are not written are not given here.

Molecule CGAGAWERWFVVCKPFGNIKFDGK-NH2 (cysteine pairing not given here) [peptide LWO2 (second cytoplasmic loop of long-wavelength-sensitive opsin of European robin)] displayed an off-rate constant (koff) in assay [1] of 0.00434 s⁻¹. The Kd in assay [2] came out at 933 nM.

One may read the koff as the rate constant with which the complex falls apart. The low end stands for slow dissociation, the high end for fast dissociation. In general, Kd refers to the equilibrium constant for the complex coming apart. Read a low Kd as a tighter complex.
